According to patent WO2006033413A1 (dated 2006):

Columns and labels:
OC-1 peptide [1] = target: T1, OC-1 peptide (human); assay: competitive inhibition ELISA on OC peptide-BSA with free OC peptide (hybridoma screening)
T1 construct: Conjugated to BSA as the coating antigen in the screening ELISA; also called C-terminal 12 amino acid partial peptide of human osteocalcin
T1 peptide: FQEAYRRFYGPV

[2] = target: human osteocalcin (human) (UniProt P02818); assay: ELISA: 0.5 ug/mL KTM-219 on plate coated with 2 ug/mL human osteocalcin, peroxidase anti-mouse IgG detection (zero-competitor point of the competition ELISA)
OC-1 peptide [3] = target: T1, OC-1 peptide; assay: open sandwich ELISA: MBP-VL adsorbed on plate, VH-AP in solution, p-nitrophenyl phosphate, OD405

B1: mouse monoclonal antibody KTM-219 (antibody, IgG1, V domains shown)
VH: EVQLEESGAEFVKAGASVKLSCKTSGYTFNNYWIHWVKQSPGQGLEWIGEIDPSDGYSNYNQKFKGKATLTVDKSSSTAYMHLNSLTSEDSAVYYCTSSTSVGGSWGQGTTVTVSS
VL: DIELTQSPLSLPVSLGDQASISCTSSQSLLHSNGDTYLHWYLQKPGQSPKLLIYTLSNRFSGVPDRFSGSGSGTDFTLKISRVEAADLGIYFCSQTTHVPYTFGGGTKLEIKR
notes: Biotin-labelled when used as the detection antibody in the sandwich ELISA; also called anti-OC-1 peptide monoclonal antibody
binding result (OC-1 peptide [1]): binds
absorbance (450 nm) without OC-1 peptide [2]: 2.28 absorbance

B2: KTM-219 VH-AP fusion protein together with MBP-VL fusion protein (open sandwich pair) (other)
VH: EVQLEESGAEFVKAGASVKLSCKTSGYTFNNYWIHWVKQSPGQGLEWIGEIDPSDGYSNYNQKFKGKATLTVDKSSSTAYMHLNSLTSEDSAVYYCTSSTSVGGSWGQGTTVTVSS
VL: DIELTQSPLSLPVSLGDQASISCTSSQSLLHSNGDTYLHWYLQKPGQSPKLLIYTLSNRFSGVPDRFSGSGSGTDFTLKISRVEAADLGIYFCSQTTHVPYTFGGGTKLEIKR
notes: Two separate purified periplasmic proteins; MBP-VL (about 56.5 kDa) is adsorbed on the plate and VH-AP (about 61.9 kDa) is added in solution; also called VH-alkaline phosphatase fusion protein; pET-VH219-AP product; not shown: E. coli alkaline phosphatase (1450 bp fragment of pPhoA); His tag; His-Myc tag
binding result (OC-1 peptide [3]): binds
